Results: IntAct's records for PubMed 28302851

B1: Circadian clock oscillator protein KaiB (Thermosynechococcus elongatus (strain BP-1)), Q79V61 (parent)
chain: MAPLRKTYVLKLYVAGNTPNSVRALKTLNNILEKEFKGVYALKVIDVLKNPQLAEEDKILATPTLAKVLPPPVRRIIGDLSNREKVLIGLDLLYEEIGDQAEDDLGLE
partner: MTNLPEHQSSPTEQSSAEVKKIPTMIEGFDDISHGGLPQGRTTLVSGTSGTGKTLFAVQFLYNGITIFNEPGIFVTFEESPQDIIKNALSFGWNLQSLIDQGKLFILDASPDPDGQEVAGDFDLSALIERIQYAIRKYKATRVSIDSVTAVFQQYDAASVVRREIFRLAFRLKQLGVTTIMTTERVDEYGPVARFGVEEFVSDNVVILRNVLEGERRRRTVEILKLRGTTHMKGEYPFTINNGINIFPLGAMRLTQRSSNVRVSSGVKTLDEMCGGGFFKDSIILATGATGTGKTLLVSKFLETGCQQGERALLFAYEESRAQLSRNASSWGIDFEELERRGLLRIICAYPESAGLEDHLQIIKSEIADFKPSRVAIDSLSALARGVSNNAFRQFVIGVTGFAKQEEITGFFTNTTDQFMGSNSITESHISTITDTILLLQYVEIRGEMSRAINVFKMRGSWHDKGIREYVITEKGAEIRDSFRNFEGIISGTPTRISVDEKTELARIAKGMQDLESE
B2: Circadian clock oscillator protein KaiB (Thermosynechococcus elongatus (strain BP-1)), Q79V61 (parent)
chain: B1 chain
partner: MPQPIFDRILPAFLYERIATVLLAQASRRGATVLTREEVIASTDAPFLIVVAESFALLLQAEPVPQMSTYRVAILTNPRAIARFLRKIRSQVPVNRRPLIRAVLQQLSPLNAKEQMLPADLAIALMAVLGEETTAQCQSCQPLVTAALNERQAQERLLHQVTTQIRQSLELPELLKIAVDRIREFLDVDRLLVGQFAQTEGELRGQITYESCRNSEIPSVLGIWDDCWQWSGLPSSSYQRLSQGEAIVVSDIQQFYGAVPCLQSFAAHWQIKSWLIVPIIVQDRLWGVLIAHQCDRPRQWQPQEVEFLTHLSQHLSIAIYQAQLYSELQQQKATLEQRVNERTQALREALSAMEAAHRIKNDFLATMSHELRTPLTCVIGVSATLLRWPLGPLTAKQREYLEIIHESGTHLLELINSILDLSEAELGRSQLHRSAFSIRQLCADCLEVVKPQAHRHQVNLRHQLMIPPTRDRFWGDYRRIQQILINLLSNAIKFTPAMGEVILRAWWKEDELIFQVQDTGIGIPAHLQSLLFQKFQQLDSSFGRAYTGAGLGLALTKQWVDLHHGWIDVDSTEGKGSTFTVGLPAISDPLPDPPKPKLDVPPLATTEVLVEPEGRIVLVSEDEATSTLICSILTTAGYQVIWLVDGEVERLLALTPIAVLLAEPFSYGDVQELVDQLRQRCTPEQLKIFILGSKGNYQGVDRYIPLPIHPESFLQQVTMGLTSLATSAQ

Variants of: B1
Details: with kaic_thevb kaiC

Row | Variant | effect of a mutation on the interaction
1 | MAPLRKTAVLKLYVAGNTPNSVRALKTLNNILEKEFKGVYALKVIDVLKNPQLAEEDKILATPTLAKVLPPPVRRIIGDLSNREKVLAGLDLLAEEIGDQAEDDLGLE [Y8A;I88A;Y94A] | with no effect

Variants of: B2
Details: with cika_thevb cikA

Row | Variant | effect of a mutation on the interaction
2 | MAPLRKTYVLKLYVAGNTPNSVRALKTLANILEKEFKGVYALKVIDVLKNPQLAEEDKILATPTLAKVLPPPVRRIIGDLSNREKVLIGLDLLYEEIGDQAEDDLGLE [N29A] | with no effect
